Measurements reported in article PMC8809517, “Cofactor-independent RNA editing by a synthetic S-type PPR protein”.

Experiments:
Test in all cases: high-throughput RNA pulldown from lysate on Ni-NTA beads; HRP: 50 mM Tris pH 8, 150 mM NaCl, 1 mM beta-mercaptoethanol, 50 ug/ml BSA, 3 ug/ml yeast RNA, 0.5% heparin; ITC and FP: Tris pH 8, 200 mM KCl, 5% glycerol; MST: 50 mM Tris pH 8, 200 mM NaCl, 1 mM DTT, BSA, heparin, 0.05% Tween 20
Conditions in all cases: tags: N-terminal His-eGFP
[1] = biological target: T1, GFP-9S library array, motif 4 ND N98Q;D124R (synthetic construct, N98Q;D124R)
T1 chain: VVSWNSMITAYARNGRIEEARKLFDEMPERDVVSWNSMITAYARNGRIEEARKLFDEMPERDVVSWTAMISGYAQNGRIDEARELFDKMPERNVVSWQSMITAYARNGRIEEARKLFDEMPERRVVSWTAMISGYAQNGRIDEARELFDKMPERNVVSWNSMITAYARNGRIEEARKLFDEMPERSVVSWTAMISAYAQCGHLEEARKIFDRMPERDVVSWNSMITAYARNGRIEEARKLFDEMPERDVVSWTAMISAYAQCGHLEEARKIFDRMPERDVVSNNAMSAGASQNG

[2] = biological target: T2, GFP-9S library array, motif 4 ND N98F;D124G (synthetic construct, N98F;D124G)
T2 chain: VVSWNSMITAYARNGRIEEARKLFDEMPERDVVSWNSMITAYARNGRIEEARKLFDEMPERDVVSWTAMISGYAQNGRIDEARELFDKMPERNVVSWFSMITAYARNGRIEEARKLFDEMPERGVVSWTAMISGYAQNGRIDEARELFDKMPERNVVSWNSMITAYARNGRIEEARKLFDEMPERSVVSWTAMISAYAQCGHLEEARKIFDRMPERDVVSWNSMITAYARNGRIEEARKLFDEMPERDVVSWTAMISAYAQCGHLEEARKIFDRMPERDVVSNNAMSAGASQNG

[3] = biological target: T3, GFP-9S library array, motif 4 ND N98T;D124Q (synthetic construct, N98T;D124Q)
T3 chain: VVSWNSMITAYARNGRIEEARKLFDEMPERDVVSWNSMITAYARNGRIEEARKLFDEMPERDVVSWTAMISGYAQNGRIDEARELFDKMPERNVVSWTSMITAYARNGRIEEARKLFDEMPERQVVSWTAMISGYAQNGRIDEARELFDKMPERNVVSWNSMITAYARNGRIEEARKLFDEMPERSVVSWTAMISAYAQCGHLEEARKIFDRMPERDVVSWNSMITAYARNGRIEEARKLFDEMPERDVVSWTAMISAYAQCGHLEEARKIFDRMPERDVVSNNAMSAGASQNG

[4] = biological target: T4, GFP-9S library array, motif 4 ND N98Q;D124V (synthetic construct, N98Q;D124V)
T4 chain: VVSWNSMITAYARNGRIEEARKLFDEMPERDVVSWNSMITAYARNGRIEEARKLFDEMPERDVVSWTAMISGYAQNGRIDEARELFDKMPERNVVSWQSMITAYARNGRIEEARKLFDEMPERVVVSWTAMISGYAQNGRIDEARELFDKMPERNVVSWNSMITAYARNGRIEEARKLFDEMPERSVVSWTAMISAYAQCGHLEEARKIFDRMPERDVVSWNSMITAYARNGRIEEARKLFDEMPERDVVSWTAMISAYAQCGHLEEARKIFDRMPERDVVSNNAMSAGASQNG

[5] = biological target: T5, GFP-9S library array, motif 4 ND N98M;D124Y (synthetic construct, N98M;D124Y)
T5 chain: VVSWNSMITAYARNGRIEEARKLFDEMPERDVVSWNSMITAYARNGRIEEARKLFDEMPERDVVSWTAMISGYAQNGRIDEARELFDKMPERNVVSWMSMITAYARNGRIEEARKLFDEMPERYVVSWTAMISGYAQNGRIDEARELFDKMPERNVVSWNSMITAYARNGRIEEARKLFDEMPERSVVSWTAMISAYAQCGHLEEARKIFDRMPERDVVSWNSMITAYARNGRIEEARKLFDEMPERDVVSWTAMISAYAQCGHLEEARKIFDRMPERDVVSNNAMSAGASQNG

B1: Cy5-rpoA-G (ssRNA)
RNA: AUUAGACGUGA
- Kd ([1]; label: 5' Cy5): 77.7 nM
- Kd ([2]; label: 5' Cy5): 75.9 nM
- Kd ([3]; label: 5' Cy5): 128 nM
- Kd ([4]; label: 5' Cy5): 3040 nM
- Kd ([5]; label: 5' Cy5): 167 nM

B2: Cy5-rpoA (ssRNA)
RNA: AUUACACGUGA
- Kd ([1]; label: 5' Cy5): 95.2 nM
- Kd ([2]; label: 5' Cy5): 74.1 nM
- Kd ([3]; label: 5' Cy5): 157 nM
- Kd ([4]; label: 5' Cy5): 3530 nM
- Kd ([5]; label: 5' Cy5): 216 nM

B3: IR-rpoA-U (ssRNA)
RNA: AUUAUACGUGA
- Kd ([1]; label: 5' IRDye 800CW): 138 nM
- Kd ([2]; label: 5' IRDye 800CW): 124 nM
- Kd ([3]; label: 5' IRDye 800CW): 194 nM
- Kd ([4]; label: 5' IRDye 800CW): 3180 nM
- Kd ([5]; label: 5' IRDye 800CW): 682 nM

B4: IR-rpoA-A (ssRNA)
RNA: AUUAAACGUGA
- Kd ([1]; label: 5' IRDye 800CW): 201 nM
- Kd ([2]; label: 5' IRDye 800CW): 139 nM
- Kd ([3]; label: 5' IRDye 800CW): 107 nM
- Kd ([4]; label: 5' IRDye 800CW): 4090 nM
- Kd ([5]; label: 5' IRDye 800CW): 488 nM
